Test results as given in paper PMC10267138, “A polyamine acetyltransferase regulates the motility and biofilm formation of Acinetobacter baumannii” (Nature Communications, 2023).

Key:
[1] = target: his-Dpa (A. baumannii diaminopropane acetyltransferase Dpa, wild type) (Acinetobacter baumannii); experiment: crystal structure; his-Dpa at 10 mg/ml crystallised with 0.1 mM acetyl-CoA; 0.2 M sodium acetate, 0.1 M Tris-HCl pH 8.5, 30% PEG 4000, 20 °C
[2] = target: his-Dpa (A. baumannii diaminopropane acetyltransferase Dpa, wild type) (Acinetobacter baumannii); experiment: SEC; analytic SEC on Superdex75 increase, 50 mM Tris-HCl pH 8, 250 mM NaCl; 500 μL of 20 μM protein injected; where indicated pre-incubated with 5-fold molar excess of acCoA and/or 1,3-DAP
SpeG = target: T1, SpeG (Escherichia coli, UniProt P0A951); experiment: DTNB acetylation assay; type: biochemical; settings: acetyl-CoA co-substrate 0.5 mM; substrate 5 mM; pH 8.0; 30 °C
T1 construct: his-tagged SpeG from pKK223.3, expressed in E. coli DJ624 delta-ara
T1 sequence (P0A951 2-186): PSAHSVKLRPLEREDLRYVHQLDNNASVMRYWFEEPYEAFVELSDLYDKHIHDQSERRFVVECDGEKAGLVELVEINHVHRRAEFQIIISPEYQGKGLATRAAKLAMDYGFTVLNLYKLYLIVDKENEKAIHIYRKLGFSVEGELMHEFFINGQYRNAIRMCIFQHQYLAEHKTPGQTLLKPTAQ

[3] = target: his-Dpa_(Y128F) (catalytically impaired Dpa) (Acinetobacter baumannii); experiment: crystal structure
Dpa = target: T2, Dpa (Acinetobacter baumannii, UniProt V5VBK4); experiment: X-ray crystal structure; type: binding; settings: crystallised with 0.1 mM acetyl-CoA, pH 8.5
T2 construct: gene ABR2091_2278; his-tagged Dpa from pKK223.3, expressed in E. coli DJ624 delta-ara; C-terminal beta-strand swapped dimer

“his-Dpa (A. baumannii diaminopropane acetyltransferase Dpa, wild type) (enzyme)” gave a stoichiometry N [1] of 2 and a stoichiometry N [2] of 2.
In the case of `NCCCCNCCCN` [spermidine], the DTNB acetylation assay (SpeG) is reported as “SpeG acetylated the long polyamines Spermine and Spermidine”.
In the case of `NCCCNCCCCNCCCN` [spermine], the DTNB acetylation assay (SpeG) is reported as “SpeG acetylated the long polyamines Spermine and Spermidine”.
Work on “his-Dpa_(Y128F) (catalytically impaired Dpa) (enzyme)” yielded a stoichiometry N [3] of 2.
In the case of `CC(=O)SCCNC(=O)CCNC(=O)[C@H](O)C(C)(C)COP(=O)(O)OP(=O)(O)OC[C@H]1O[C@@H](n2cnc3c(N)ncnc32)[C@H](O)[C@@H]1OP(=O)(O)O` [acetyl-CoA], the X-ray crystal structure (Dpa) is reported as “we determined the structure of Dpa bound to acCoA”.
